The assay concerns the target LOV-PAS-HK construct of Brucella abortus LOV-HK (residues 15 to 489), called the full-length protein (Brucella abortus). The assay is described as follows: SEC with static light scattering (SEC-SLS).

LOV-PAS-HK construct of Brucella abortus LOV-HK (residues 15 to 489), called the full-length protein (enzyme), sequence (A9MBM8 15-489 limits assumed): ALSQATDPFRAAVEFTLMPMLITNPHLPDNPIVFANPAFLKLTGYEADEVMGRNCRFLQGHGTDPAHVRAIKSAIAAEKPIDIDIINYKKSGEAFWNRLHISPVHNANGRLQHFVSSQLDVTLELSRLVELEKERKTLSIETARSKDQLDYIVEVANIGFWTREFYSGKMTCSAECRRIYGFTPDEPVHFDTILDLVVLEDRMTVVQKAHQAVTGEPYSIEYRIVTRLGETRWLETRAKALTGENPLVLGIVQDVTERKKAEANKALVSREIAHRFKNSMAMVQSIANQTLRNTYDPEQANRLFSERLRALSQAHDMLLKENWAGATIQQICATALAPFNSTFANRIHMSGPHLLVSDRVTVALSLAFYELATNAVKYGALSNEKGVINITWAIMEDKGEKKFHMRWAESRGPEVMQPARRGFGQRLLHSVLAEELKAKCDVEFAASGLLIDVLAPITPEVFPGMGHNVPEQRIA

As to “LOV-PAS-HK construct of Brucella abortus LOV-HK (residues 15 to 489), called the full-length protein (enzyme)”, the stoichiometry N (as a rule, the number of molecules, sites or subunits per partner or assembly) was 2.

The values are drawn from publication PMC8092228 (mBio, 2021).
